# Experimental data taken from patent US20050112126A1 (Genentech, published 2005).
# Molecular target: T1, VEGF (human, UniProt P15692-4 27-191, limits assumed)
# T1 construct: Biotinylated in the KDR-IgG ELISA, amine-coupled to the chip in BIAcore; also called biotinylated VEGF; vascular endothelial growth factor
# Assay: competitive phage-ELISA, relative to pY0192
# Description: In such an assay, phages were first serially diluted to determine a fractional saturation titer which was then held constant and used to incubate with varying concentrations of VEGF (starting at 200 nM to 0 nM) in solution. The mixture was then transferred onto plate precoated with VEGF (2 μg/mL) and blocked with 5% instant milk, and allowed to equilibrate for 1 hour at room temperature. Thereafter, the phage solution was removed and the remaining bound phages were detected with a solution of rabbit anti-phage antibody mixed with goat anti-rabbit conjugate of horse radish peroxidase. After an hour incubation at room temperature, the plate was developed with a chromogenic substrate, o-phenylenediamine (Sigma). The reaction was stopped with addition of ½ volume of 2.5 M H₂SO₄. Optical density at 492 nm was measured on a spectrophotometric plate reader.
# IC50's were determined in a competitive phage-ELISA assay.
# T1 sequence (P15692 other isoform, or with tags, fused parts or gaps limits assumed): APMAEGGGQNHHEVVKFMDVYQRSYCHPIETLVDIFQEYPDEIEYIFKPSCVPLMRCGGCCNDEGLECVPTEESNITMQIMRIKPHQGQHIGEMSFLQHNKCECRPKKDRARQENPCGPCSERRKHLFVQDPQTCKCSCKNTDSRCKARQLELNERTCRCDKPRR
row,Binder,IC50 (mut)/IC50 (wt)
1,"pY0192 VL W96A (Fab, V domains shown) VH: EVQLVESGGGLVQPGGSLRLSCAASGYTFTNYGINWVRQAPGKGLEWVGWINTYTGEPTYAADFKRRFTFSLDTSKSTAYLQMNSLRAEDTAVYYCAKYPHYYGSSHWYFDVWGQGTL VL: DIQLTQSPSSLSASVGDRVTITCRANEQLSNYLNWYQQKPGKAPKVLIYFTSSLHSGVPSRFSGSGSGTDFTLTISSLQPEDFATYYCQQYSTVPATFGQGTKVEIKR",> 150
2,"pY0192 VH S106A (Fab, V domains shown) VH: EVQLVESGGGLVQPGGSLRLSCAASGYTFTNYGINWVRQAPGKGLEWVGWINTYTGEPTYAADFKRRFTFSLDTSKSTAYLQMNSLRAEDTAVYYCAKYPHYYGSAHWYFDVWGQGTL VL: DIQLTQSPSSLSASVGDRVTITCRANEQLSNYLNWYQQKPGKAPKVLIYFTSSLHSGVPSRFSGSGSGTDFTLTISSLQPEDFATYYCQQYSTVPWTFGQGTKVEIKR",> 150
3,"pY0192 VH N52A (Fab, V domains shown) VH: EVQLVESGGGLVQPGGSLRLSCAASGYTFTNYGINWVRQAPGKGLEWVGWIATYTGEPTYAADFKRRFTFSLDTSKSTAYLQMNSLRAEDTAVYYCAKYPHYYGSSHWYFDVWGQGTL VL: DIQLTQSPSSLSASVGDRVTITCRANEQLSNYLNWYQQKPGKAPKVLIYFTSSLHSGVPSRFSGSGSGTDFTLTISSLQPEDFATYYCQQYSTVPWTFGQGTKVEIKR",> 150
4,"pY0192 VH Y99A (Fab, V domains shown) VH: EVQLVESGGGLVQPGGSLRLSCAASGYTFTNYGINWVRQAPGKGLEWVGWINTYTGEPTYAADFKRRFTFSLDTSKSTAYLQMNSLRAEDTAVYYCAKAPHYYGSSHWYFDVWGQGTL VL: DIQLTQSPSSLSASVGDRVTITCRANEQLSNYLNWYQQKPGKAPKVLIYFTSSLHSGVPSRFSGSGSGTDFTLTISSLQPEDFATYYCQQYSTVPWTFGQGTKVEIKR",> 150
5,"pY0192 VH W50A (Fab, V domains shown) VH: EVQLVESGGGLVQPGGSLRLSCAASGYTFTNYGINWVRQAPGKGLEWVGAINTYTGEPTYAADFKRRFTFSLDTSKSTAYLQMNSLRAEDTAVYYCAKYPHYYGSSHWYFDVWGQGTL VL: DIQLTQSPSSLSASVGDRVTITCRANEQLSNYLNWYQQKPGKAPKVLIYFTSSLHSGVPSRFSGSGSGTDFTLTISSLQPEDFATYYCQQYSTVPWTFGQGTKVEIKR",> 150
6,"pY0192 VH W108A (Fab, V domains shown) VH: EVQLVESGGGLVQPGGSLRLSCAASGYTFTNYGINWVRQAPGKGLEWVGWINTYTGEPTYAADFKRRFTFSLDTSKSTAYLQMNSLRAEDTAVYYCAKYPHYYGSSHAYFDVWGQGTL VL: DIQLTQSPSSLSASVGDRVTITCRANEQLSNYLNWYQQKPGKAPKVLIYFTSSLHSGVPSRFSGSGSGTDFTLTISSLQPEDFATYYCQQYSTVPWTFGQGTKVEIKR",> 150
7,"pY0192 VH N31A (Fab, V domains shown) VH: EVQLVESGGGLVQPGGSLRLSCAASGYTFTAYGINWVRQAPGKGLEWVGWINTYTGEPTYAADFKRRFTFSLDTSKSTAYLQMNSLRAEDTAVYYCAKYPHYYGSSHWYFDVWGQGTL VL: DIQLTQSPSSLSASVGDRVTITCRANEQLSNYLNWYQQKPGKAPKVLIYFTSSLHSGVPSRFSGSGSGTDFTLTISSLQPEDFATYYCQQYSTVPWTFGQGTKVEIKR",> 150
8,"pY0192 VH Y32A (Fab, V domains shown) VH: EVQLVESGGGLVQPGGSLRLSCAASGYTFTNAGINWVRQAPGKGLEWVGWINTYTGEPTYAADFKRRFTFSLDTSKSTAYLQMNSLRAEDTAVYYCAKYPHYYGSSHWYFDVWGQGTL VL: DIQLTQSPSSLSASVGDRVTITCRANEQLSNYLNWYQQKPGKAPKVLIYFTSSLHSGVPSRFSGSGSGTDFTLTISSLQPEDFATYYCQQYSTVPWTFGQGTKVEIKR",> 150
9,"pY0192 VH F29A (Fab, V domains shown, Ala-scan variant of pY0192; Fab on phage) VH: EVQLVESGGGLVQPGGSLRLSCAASGYTATNYGINWVRQAPGKGLEWVGWINTYTGEPTYAADFKRRFTFSLDTSKSTAYLQMNSLRAEDTAVYYCAKYPHYYGSSHWYFDVWGQGTL VL: DIQLTQSPSSLSASVGDRVTITCRANEQLSNYLNWYQQKPGKAPKVLIYFTSSLHSGVPSRFSGSGSGTDFTLTISSLQPEDFATYYCQQYSTVPWTFGQGTKVEIKR",16 ratio
10,"pY0192 VH G104A (Fab, V domains shown, Ala-scan variant of pY0192; Fab on phage) VH: EVQLVESGGGLVQPGGSLRLSCAASGYTFTNYGINWVRQAPGKGLEWVGWINTYTGEPTYAADFKRRFTFSLDTSKSTAYLQMNSLRAEDTAVYYCAKYPHYYASSHWYFDVWGQGTL VL: DIQLTQSPSSLSASVGDRVTITCRANEQLSNYLNWYQQKPGKAPKVLIYFTSSLHSGVPSRFSGSGSGTDFTLTISSLQPEDFATYYCQQYSTVPWTFGQGTKVEIKR",2 ratio
11,"pY0192 VH D111A (Fab, V domains shown, Ala-scan variant of pY0192; Fab on phage) VH: EVQLVESGGGLVQPGGSLRLSCAASGYTFTNYGINWVRQAPGKGLEWVGWINTYTGEPTYAADFKRRFTFSLDTSKSTAYLQMNSLRAEDTAVYYCAKYPHYYGSSHWYFAVWGQGTL VL: DIQLTQSPSSLSASVGDRVTITCRANEQLSNYLNWYQQKPGKAPKVLIYFTSSLHSGVPSRFSGSGSGTDFTLTISSLQPEDFATYYCQQYSTVPWTFGQGTKVEIKR",2 ratio
12,"pY0192 VH A62S (Fab, V domains shown, Ala-scan variant of pY0192; Fab on phage) VH: EVQLVESGGGLVQPGGSLRLSCAASGYTFTNYGINWVRQAPGKGLEWVGWINTYTGEPTYASDFKRRFTFSLDTSKSTAYLQMNSLRAEDTAVYYCAKYPHYYGSSHWYFDVWGQGTL VL: DIQLTQSPSSLSASVGDRVTITCRANEQLSNYLNWYQQKPGKAPKVLIYFTSSLHSGVPSRFSGSGSGTDFTLTISSLQPEDFATYYCQQYSTVPWTFGQGTKVEIKR",1 ratio
13,"pY0192 VH F64A (Fab, V domains shown, Ala-scan variant of pY0192; Fab on phage) VH: EVQLVESGGGLVQPGGSLRLSCAASGYTFTNYGINWVRQAPGKGLEWVGWINTYTGEPTYAADAKRRFTFSLDTSKSTAYLQMNSLRAEDTAVYYCAKYPHYYGSSHWYFDVWGQGTL VL: DIQLTQSPSSLSASVGDRVTITCRANEQLSNYLNWYQQKPGKAPKVLIYFTSSLHSGVPSRFSGSGSGTDFTLTISSLQPEDFATYYCQQYSTVPWTFGQGTKVEIKR",1 ratio
14,"pY0192 VH F110A (Fab, V domains shown, Ala-scan variant of pY0192; Fab on phage) VH: EVQLVESGGGLVQPGGSLRLSCAASGYTFTNYGINWVRQAPGKGLEWVGWINTYTGEPTYAADFKRRFTFSLDTSKSTAYLQMNSLRAEDTAVYYCAKYPHYYGSSHWYADVWGQGTL VL: DIQLTQSPSSLSASVGDRVTITCRANEQLSNYLNWYQQKPGKAPKVLIYFTSSLHSGVPSRFSGSGSGTDFTLTISSLQPEDFATYYCQQYSTVPWTFGQGTKVEIKR",25 ratio
15,"pY0192 VH G26A (Fab, V domains shown, Ala-scan variant of pY0192; Fab on phage) VH: EVQLVESGGGLVQPGGSLRLSCAASAYTFTNYGINWVRQAPGKGLEWVGWINTYTGEPTYAADFKRRFTFSLDTSKSTAYLQMNSLRAEDTAVYYCAKYPHYYGSSHWYFDVWGQGTL VL: DIQLTQSPSSLSASVGDRVTITCRANEQLSNYLNWYQQKPGKAPKVLIYFTSSLHSGVPSRFSGSGSGTDFTLTISSLQPEDFATYYCQQYSTVPWTFGQGTKVEIKR",2 ratio
16,"pY0192 VH G56A (Fab, V domains shown, Ala-scan variant of pY0192; Fab on phage) VH: EVQLVESGGGLVQPGGSLRLSCAASGYTFTNYGINWVRQAPGKGLEWVGWINTYTAEPTYAADFKRRFTFSLDTSKSTAYLQMNSLRAEDTAVYYCAKYPHYYGSSHWYFDVWGQGTL VL: DIQLTQSPSSLSASVGDRVTITCRANEQLSNYLNWYQQKPGKAPKVLIYFTSSLHSGVPSRFSGSGSGTDFTLTISSLQPEDFATYYCQQYSTVPWTFGQGTKVEIKR",1 ratio
17,"pY0192 VH A61S (Fab, V domains shown, Ala-scan variant of pY0192; Fab on phage) VH: EVQLVESGGGLVQPGGSLRLSCAASGYTFTNYGINWVRQAPGKGLEWVGWINTYTGEPTYSADFKRRFTFSLDTSKSTAYLQMNSLRAEDTAVYYCAKYPHYYGSSHWYFDVWGQGTL VL: DIQLTQSPSSLSASVGDRVTITCRANEQLSNYLNWYQQKPGKAPKVLIYFTSSLHSGVPSRFSGSGSGTDFTLTISSLQPEDFATYYCQQYSTVPWTFGQGTKVEIKR",1 ratio
18,"pY0192 VH E57A (Fab, V domains shown, Ala-scan variant of pY0192; Fab on phage) VH: EVQLVESGGGLVQPGGSLRLSCAASGYTFTNYGINWVRQAPGKGLEWVGWINTYTGAPTYAADFKRRFTFSLDTSKSTAYLQMNSLRAEDTAVYYCAKYPHYYGSSHWYFDVWGQGTL VL: DIQLTQSPSSLSASVGDRVTITCRANEQLSNYLNWYQQKPGKAPKVLIYFTSSLHSGVPSRFSGSGSGTDFTLTISSLQPEDFATYYCQQYSTVPWTFGQGTKVEIKR",2 ratio
19,"pY0192 VH D63A (Fab, V domains shown, Ala-scan variant of pY0192; Fab on phage) VH: EVQLVESGGGLVQPGGSLRLSCAASGYTFTNYGINWVRQAPGKGLEWVGWINTYTGEPTYAAAFKRRFTFSLDTSKSTAYLQMNSLRAEDTAVYYCAKYPHYYGSSHWYFDVWGQGTL VL: DIQLTQSPSSLSASVGDRVTITCRANEQLSNYLNWYQQKPGKAPKVLIYFTSSLHSGVPSRFSGSGSGTDFTLTISSLQPEDFATYYCQQYSTVPWTFGQGTKVEIKR",1 ratio
20,"pY0192 VH G33A (Fab, V domains shown, Ala-scan variant of pY0192; Fab on phage) VH: EVQLVESGGGLVQPGGSLRLSCAASGYTFTNYAINWVRQAPGKGLEWVGWINTYTGEPTYAADFKRRFTFSLDTSKSTAYLQMNSLRAEDTAVYYCAKYPHYYGSSHWYFDVWGQGTL VL: DIQLTQSPSSLSASVGDRVTITCRANEQLSNYLNWYQQKPGKAPKVLIYFTSSLHSGVPSRFSGSGSGTDFTLTISSLQPEDFATYYCQQYSTVPWTFGQGTKVEIKR",6 ratio
